These are literature values, as cited in article PMC3045386.

The target of the data set is Ran (Homo sapiens) (UniProt P62826).

A word on the Kd: it is the equilibrium constant for the complex coming apart. For the substance RanBP3 (from UniProt Q9H6Z4), the equilibrium dissociation constant (Kd) is 10 µM.
